The target of experiment [1] is T1, GST‐CDC20 (human (cDNA from HEK293T cells), UniProt Q12834 1-499).
T1 construct: CDC20, full-length cDNA amplified from HEK293T cell cDNA; The legend names no limits; source: E. coli BL21, purified (Glutathione Sepharose 4B)
Kind of experiment: pull-down; purified MBP, MBP‐CCDC68‐FL or MBP‐CCDC68‐Δ280–300 incubated with GST‐CDC20; Coomassie staining and immunoblot. To be noted: both partners purified.

In experiment [2] the target is T1, GST‐CDC20. Kind of experiment: pull-down; purified CCDC68 (50 nM) incubated with GST or the GST fusion protein; Coomassie staining and immunoblot. The following applies: both partners purified. (A western blot detects proteins with antibodies after separation by electrophoresis.)

T1 sequence (Q12834 whole entry): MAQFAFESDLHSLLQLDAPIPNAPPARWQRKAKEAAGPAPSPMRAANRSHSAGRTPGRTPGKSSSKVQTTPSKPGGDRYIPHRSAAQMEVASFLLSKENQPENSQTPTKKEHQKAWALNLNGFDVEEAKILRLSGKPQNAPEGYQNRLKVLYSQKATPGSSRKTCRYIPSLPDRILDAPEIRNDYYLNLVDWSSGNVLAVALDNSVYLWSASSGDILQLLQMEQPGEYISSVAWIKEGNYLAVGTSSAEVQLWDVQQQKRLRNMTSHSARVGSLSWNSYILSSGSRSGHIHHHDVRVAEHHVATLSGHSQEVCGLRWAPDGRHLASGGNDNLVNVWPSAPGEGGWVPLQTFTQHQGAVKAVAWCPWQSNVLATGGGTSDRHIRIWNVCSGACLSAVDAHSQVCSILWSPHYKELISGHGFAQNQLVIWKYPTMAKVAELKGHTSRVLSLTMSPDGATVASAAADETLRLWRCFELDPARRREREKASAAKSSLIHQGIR

B1: MBP‐CCDC68‐Full length (FL) (natural protein, human (cDNA from HEK293T cells), UniProt Q9H2F9 1-335, looked up)
chain: MTTVTVTTEIPPRDKMEDNSALYESTSAHIIEETEYVKKIRTTLQKIRTQMFKDEIRHDSTNHKLDAKHCGNLQQGSDSEMDPSCCSLDLLMKKIKGKDLQLLEMNKENEVLKIKLQASREAGAAALRNVAQRLFENYQTQSEEVRKKQEDSKQLLQVNKLEKEQKLKQHVENLNQVAEKLEEKHSQITELENLVQRMEKEKRTLLERKLSLENKLLQLKSSATYGKSCQDLQREISILQEQISHLQFVIHSQHQNLRSVIQEMEGLKNNLKEQDKRIENLREKVNILEAQNKELKTQVALSSETPRTKVSKAVSTSELKTEGVSPYLMLIRLRK
notes: CCDC68, full-length cDNA amplified from HEK293T cell cDNA; Vector pCold‐MBP; also called MBP‐CCDC68‐FL; source: E. coli BL21, purified (Amylose Beads, eluted with maltose)
On to B1, for which, in the experiment with GST‐CDC20 [1], the binding result is listed as “binds”.

B2: Purified CCDC68 (recombinant, from bacteria) (natural protein, human (cDNA from HEK293T cells), UniProt Q9H2F9 1-335, looked up)
chain: B1 chain
notes: CCDC68, full-length cDNA amplified from HEK293T cell cDNA; The legend names no limits; also called recombinant CCDC68; source: E. coli BL21, purified (eluted by cleaving the tag with PreScission protease)
Consider B2, for which the binding result in the experiment with GST‐CDC20 [2] is “binds”.

The record behind these values is PMC11425217, “CCDC68 Maintains Mitotic Checkpoint Activation by Promoting CDC20 Integration into the MCC” (Advanced Science, 2024).
